{"source": "paper PMC6589724", "about": "“A geminivirus betasatellite encoded βC1 protein interacts with PsbP and subverts PsbP‐mediated antiviral defence in plants”", "molecular_target": "T1, GST-βC1 (Radish leaf curl betasatellite (RaLCB), UniProt A9XCM1 1-118)", "T1 sequence": "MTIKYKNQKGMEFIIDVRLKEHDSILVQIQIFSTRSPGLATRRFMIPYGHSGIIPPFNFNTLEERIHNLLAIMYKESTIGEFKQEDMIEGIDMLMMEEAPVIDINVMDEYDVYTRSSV", "test": "EMSA; 20 mM Tris-HCl pH 8.0, 2 mM DTT, 5 mM MgCl2, 12% glycerol, 25 mM KCl, 2 mM ATP, 10 nM probe, 15 min, room temperature; 3.7% native PAGE", "conditions": "protein: recombinant; tags: N-terminal GST (pGEX-6p-2); label: 5'-32P; single strand", "data": [{"binder": "ACGCTACGCAGCAGCCTTAGCTAC (ssDNA)", "note": "[SCR probe (1303-1326)]", "values": [{"measurement": "binding result", "result": "binds"}]}]}
